Changes are numbered by the printed parent chain. Where “and” joins values, the source holds several entries; their conditions need not be identical. Identical values can stand only once. Like-named read-outs stand apart in the source and are kept apart here.
Columns and labels:
Format in all cases: cell-based
C3aR I102^3.32A = target: T1, C3aR I102^3.32A (Homo sapiens, UniProt Q16581, I102A); test: GloSensor-based cAMP assay, C3aR mutant I102A; conditions: for ΔpIC50 ± SE of Diff.: I102^3.32A relative to WT C3aR; for cAMP response (% Forskolin): I1023.32A
T1 construct: expressed in transfected cells; host or cells: HEK293T
T1 sequence (Q16581 1-482 I102A): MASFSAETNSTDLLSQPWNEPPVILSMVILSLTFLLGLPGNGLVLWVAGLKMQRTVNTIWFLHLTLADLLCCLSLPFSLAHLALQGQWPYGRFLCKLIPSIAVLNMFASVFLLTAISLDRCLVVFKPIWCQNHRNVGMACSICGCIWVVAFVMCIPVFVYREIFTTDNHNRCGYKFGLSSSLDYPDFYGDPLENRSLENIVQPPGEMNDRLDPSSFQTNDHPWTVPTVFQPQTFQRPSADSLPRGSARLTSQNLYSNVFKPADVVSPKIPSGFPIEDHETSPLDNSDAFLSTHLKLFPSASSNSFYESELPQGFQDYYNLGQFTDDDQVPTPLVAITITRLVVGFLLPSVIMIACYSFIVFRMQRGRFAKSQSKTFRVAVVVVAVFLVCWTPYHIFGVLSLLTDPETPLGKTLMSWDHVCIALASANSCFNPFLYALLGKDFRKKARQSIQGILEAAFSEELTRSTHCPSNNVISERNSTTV
Description: (§1) HEK293T cells were seeded on 6-well plates (NEST) and transfected with pGlosensor™-22F plasmids (Promega) and pcDNA3.1 plasmids encoding C3aR or its mutants an with N-terminal FLAG tag. After 48 h, cells were detached with Accutase solution (Sigma-Aldrich) and washed with PBS, and resuspended in assay buffer (CO2-independent medium with 0.5 mg mL^−1D-luciferin). 100,000–200,000 cells were seeded on 96-well white bottom plates (SPL) and incubated at 37 °C for 45 min followed by 45 min incubation at room temperature. After 90 min of incubation, basal luminescence signals were recorded. In total, 25 μl of test ligand with various concentrations and 1 μM Forskolin (Sigma-Aldrich) were treated to the cells and luminescence signals were measured by Tristar 2 LB 942 multimode reader (Berthold). […] Relative luminescence unit (%) was calculated with the signal of wells treated with vehicle as 0% and the signal of wells treated with 1 μM Forskolin as 100% (DiRaddo et al, [2014]). Nonlinear regression was performed using a three-parameter logistic equation.

C3aR Y174^ECL2A = target: T2, C3aR Y174^ECL2A (Homo sapiens, UniProt Q16581, Y174A); test: GloSensor-based cAMP assay, C3aR mutant Y174A; conditions: for Mean Diff. of pIC50, WT vs. Y174A: Dunnett's multiple comparisons test, WT minus mutant; for ΔpIC50 ± SE of Diff.: Y174^ECL2A relative to WT C3aR; for cAMP response (% Forskolin): Y174ECL2A
T2 construct: expressed in transfected cells; host or cells: HEK293T
T2 sequence (Q16581 1-482 Y174A): T1 sequence (Q16581 1-482 I102A) with A102I, Y174A
Description: as §1

C3aR R340^5.42A = target: T3, C3aR R340^5.42A (Homo sapiens, UniProt Q16581, R340A); test: GloSensor-based cAMP assay, C3aR mutant R340A; conditions: for ΔpIC50 ± SE of Diff.: R340^5.42A relative to WT C3aR; for cAMP response (% Forskolin): R3405.42A
T3 construct: expressed in transfected cells; host or cells: HEK293T
T3 sequence (Q16581 1-482 R340A): T1 sequence (Q16581 1-482 I102A) with A102I, R340A
Description: as §1

[1] = Dunnett's multiple comparisons test, WT minus mutant
[2] = Log[C3a (M)] -7, single replicates
[3] = Log[C3a (M)] -8, single replicates
[4] = Log[C3a (M)] -9, single replicates
[5] = Log[C3a (M)] -10, single replicates
[6] = Log[C3a (M)] -11, single replicates
[7] = Log[C3a (M)] -12, single replicates

## Cc1cc(C(c2ccc(Cl)cc2)c2ccc(Cl)cc2)sc1C(=O)N[C@@H](CCCNC(=N)N)C(=O)O [JR14a, reference compound]
C3aR I102^3.32A; I102A, Log[JR14a (M)] -6, single replicates, read-out: cAMP response (% Forskolin)
  remaining activity at 1 µM: 11.4%
C3aR I102^3.32A; I102A, Log[JR14a (M)] -7, single replicates, read-out: cAMP response (% Forskolin)
  remaining activity at 0.1 µM: 12.3%
C3aR I102^3.32A; I102A, Log[JR14a (M)] -8, single replicates, read-out: cAMP response (% Forskolin)
  remaining activity at 0.01 µM: 52.6%
C3aR I102^3.32A; I102A, Log[JR14a (M)] -9, single replicates, read-out: cAMP response (% Forskolin)
  remaining activity at 0.001 µM: 79.2%
C3aR I102^3.32A; I102A, Log[JR14a (M)] -10, single replicates, read-out: cAMP response (% Forskolin)
  remaining activity at 0.0001 µM: 97.7%
C3aR I102^3.32A; I102A, Log[JR14a (M)] -11, single replicates, read-out: cAMP response (% Forskolin)
  remaining activity at 10 pM: 104%
C3aR I102^3.32A
  ΔpIC50 ± SE of Diff.: -0.13 ± 0.07
C3aR I102^3.32A; IC50, I102^3.32A, dose-response plot
  IC50: 7.05 nM
C3aR I102^3.32A; pIC50 (Replicate), I102^3.32A, individual replicates
  IC50: 7.76 nM and 9.12 nM and 4.68 nM
C3aR I102^3.32A; pIC50 ± SEM (Mean), I102^3.32A, mean of independent experiments
  IC50: 6.92 nM
C3aR Y174^ECL2A
  Mean Diff. of pIC50, WT vs. Y174A: -0.215
  ΔpIC50 ± SE of Diff.: 0.22 ± 0.09
C3aR Y174^ECL2A; IC50, Y174^ECL2A, dose-response plot
  IC50: 1.61 nM
C3aR Y174^ECL2A; Y174A, Log[JR14a (M)] -6, single replicates, read-out: cAMP response (% Forskolin)
  remaining activity at 1 µM: 10.9%
C3aR Y174^ECL2A; Y174A, Log[JR14a (M)] -7, single replicates, read-out: cAMP response (% Forskolin)
  remaining activity at 0.1 µM: 11.8%
C3aR Y174^ECL2A; Y174A, Log[JR14a (M)] -8, single replicates, read-out: cAMP response (% Forskolin)
  remaining activity at 0.01 µM: 40.7%
C3aR Y174^ECL2A; Y174A, Log[JR14a (M)] -10, single replicates, read-out: cAMP response (% Forskolin)
  remaining activity at 0.0001 µM: 95.8%
C3aR Y174^ECL2A; Y174A, Log[JR14a (M)] -11, single replicates, read-out: cAMP response (% Forskolin)
  remaining activity at 10 pM: 106%
C3aR Y174^ECL2A; Y174^ECL2 to Ala, relatively mild effect on downstream signaling
  decrease in IC50 values vs WT: < 10 fold
C3aR Y174^ECL2A; pIC50 (Replicate), Y174^ECL2A, individual replicates
  IC50: 3.63 nM and 1.55 nM and 0.871 nM
C3aR Y174^ECL2A; pIC50 ± SEM (Mean), Y174^ECL2A, mean of independent experiments
  IC50: 1.7 nM
C3aR R340^5.42A; [1]
  Mean Diff. of pIC50, WT vs. R340A: 2.282
C3aR R340^5.42A; IC50, R340^5.42A, dose-response plot
  IC50: 478 nM
C3aR R340^5.42A; R340A, Log[JR14a (M)] -6, single replicates, read-out: cAMP response (% Forskolin)
  remaining activity at 1 µM: 78.9%
C3aR R340^5.42A; R340A, Log[JR14a (M)] -7, single replicates, read-out: cAMP response (% Forskolin)
  remaining activity at 0.1 µM: 99.9%
C3aR R340^5.42A; R340A, Log[JR14a (M)] -10, single replicates, read-out: cAMP response (% Forskolin)
  remaining activity at 0.0001 µM: 105%
C3aR R340^5.42A; R340A, Log[JR14a (M)] -11, single replicates, read-out: cAMP response (% Forskolin)
  remaining activity at 10 pM: 104%
C3aR R340^5.42A
  ΔpIC50 ± SE of Diff.: -2.28 ± 0.14
C3aR R340^5.42A; pIC50 ± SEM (Mean), R340^5.42A, mean of independent experiments
  IC50: 537 nM

## C3a: anaphylatoxin C3a, natural peptide ligand of C3aR (a 77-amino acid peptide), Sigma-Aldrich
C3aR I102^3.32A; [1]
  Mean Diff. of pIC50, WT vs. I102A: 0.080
C3aR I102^3.32A
  ΔpIC50 ± SE of Diff.: -0.08 ± 0.06
C3aR I102^3.32A; I102^3.32A, dose-response plot, read-out: IC50
  IC50: 3.33 nM
C3aR I102^3.32A; I102^3.32A, individual replicates
  pIC50 (Replicate): 8.61 and 8.63 and 8.49
C3aR I102^3.32A; I102^3.32A, mean of independent experiments
  pIC50 ± SEM (Mean): 8.47
C3aR I102^3.32A; [2]
  cAMP response (% Forskolin): 12.51 % Forskolin and 13.87 % Forskolin and 13.89 % Forskolin and 16.73 % Forskolin
C3aR I102^3.32A; [3]
  cAMP response (% Forskolin): 18.09 % Forskolin and 20.55 % Forskolin and 21.20 % Forskolin and 43.71 % Forskolin
C3aR I102^3.32A; [4]
  cAMP response (% Forskolin): 79.37 % Forskolin and 75.76 % Forskolin and 87.66 % Forskolin and 96.25 % Forskolin
C3aR I102^3.32A; [5]
  cAMP response (% Forskolin): 100.22 % Forskolin and 97.06 % Forskolin and 101.20 % Forskolin and 92.74 % Forskolin
C3aR I102^3.32A; [6]
  cAMP response (% Forskolin): 101.22 % Forskolin and 97.60 % Forskolin and 96.34 % Forskolin and 96.47 % Forskolin
C3aR I102^3.32A; [7]
  cAMP response (% Forskolin): 100.09 % Forskolin and 99.44 % Forskolin and 103.06 % Forskolin and 100.29 % Forskolin
C3aR Y174^ECL2A
  Mean Diff. of pIC50, WT vs. Y174A: 0.586
  ΔpIC50 ± SE of Diff.: -0.59 ± 0.09
C3aR Y174^ECL2A; [2]
  cAMP response (% Forskolin): 9.91 % Forskolin and 12.64 % Forskolin and 15.55 % Forskolin and 17.18 % Forskolin and 6.28 % Forskolin
C3aR Y174^ECL2A; [3]
  cAMP response (% Forskolin): 29.94 % Forskolin and 34.61 % Forskolin and 37.29 % Forskolin and 78.77 % Forskolin and 47.80 % Forskolin
C3aR Y174^ECL2A; [4]
  cAMP response (% Forskolin): 93.29 % Forskolin and 98.24 % Forskolin and 97.28 % Forskolin and 106.07 % Forskolin and 106.88 % Forskolin
C3aR Y174^ECL2A; [5]
  cAMP response (% Forskolin): 95.65 % Forskolin and 102.82 % Forskolin and 100.47 % Forskolin and 102.58 % Forskolin and 97.30 % Forskolin
C3aR Y174^ECL2A; [6]
  cAMP response (% Forskolin): 98.42 % Forskolin and 110.81 % Forskolin and 110.05 % Forskolin and 103.42 % Forskolin and 89.46 % Forskolin
C3aR Y174^ECL2A; [7]
  cAMP response (% Forskolin): 91.57 % Forskolin and 98.11 % Forskolin and 107.79 % Forskolin and 100.25 % Forskolin and 103.20 % Forskolin
C3aR Y174^ECL2A; Y174^ECL2A, dose-response plot, read-out: IC50
  IC50: 8.35 nM
C3aR Y174^ECL2A; Y174^ECL2A, individual replicates
  pIC50 (Replicate): 8.26 and 8.28 and 8.32 and 7.39 and 7.92
C3aR Y174^ECL2A; Y174^ECL2A, mean of independent experiments
  pIC50 ± SEM (Mean): 8.04
C3aR R340^5.42A
  ΔpIC50 ± SE of Diff.: -1.39 ± 0.06
C3aR R340^5.42A; R340^5.42A, dose-response plot, read-out: IC50
  IC50: 47 nM
C3aR R340^5.42A; R340^5.42A, individual replicates
  pIC50 (Replicate): 7.31 and 7.68 and 7.02 and 6.95
C3aR R340^5.42A; R340^5.42A, mean of independent experiments
  pIC50 ± SEM (Mean): 7.21
C3aR R340^5.42A; [2]
  cAMP response (% Forskolin): 25.35 % Forskolin and 26.64 % Forskolin and 21.46 % Forskolin and 37.94 % Forskolin and 13.15 % Forskolin and 37.80 % Forskolin
C3aR R340^5.42A; [3]
  cAMP response (% Forskolin): 77.37 % Forskolin and 75.03 % Forskolin and 71.05 % Forskolin and 86.28 % Forskolin and 86.11 % Forskolin and 85.37 % Forskolin
C3aR R340^5.42A; [4]
  cAMP response (% Forskolin): 91.29 % Forskolin and 112.12 % Forskolin and 107.73 % Forskolin and 93.95 % Forskolin and 109.05 % Forskolin and 100.87 % Forskolin
C3aR R340^5.42A; [5]
  cAMP response (% Forskolin): 92.00 % Forskolin and 91.42 % Forskolin and 98.18 % Forskolin and 91.19 % Forskolin and 108.32 % Forskolin and 87.99 % Forskolin
C3aR R340^5.42A; [6]
  cAMP response (% Forskolin): 98.26 % Forskolin and 112.91 % Forskolin and 108.63 % Forskolin and 92.51 % Forskolin and 96.75 % Forskolin and 86.60 % Forskolin
C3aR R340^5.42A; [7]
  cAMP response (% Forskolin): 94.72 % Forskolin and 95.53 % Forskolin and 102.57 % Forskolin and 99.30 % Forskolin and 100.29 % Forskolin and 108.61 % Forskolin
